Results from the Immune Epitope Database (IEDB).
Blank lines part the entries; values can stand above or below the sequence they belong to.

What was measured:
[1] = target: HLA-A*02:01; assay: IEDB peptide-MHC binding, purified MHC/competitive/fluorescence; ≥ and ≤ were set here for values at or beyond the usual limits of such assays
[2] = target: HLA-A*26:01; assay: IEDB peptide-MHC binding, purified MHC/competitive/radioactivity; filed as Kd, often an IC50 or EC50 that approximates it; ≥ and ≤ were set here for values at or beyond the usual limits of such assays
[3] = target: HLA-A*01:01; assay: as above
[4] = target: HLA-A*30:02; assay: as above
[5] = target: HLA-A*24:02; assay: as above
[6] = target: HLA-A*23:01; assay: as above
[7] = target: HLA-A*29:02; assay: as above
[8] = target: HLA-A*69:01; assay: IEDB peptide-MHC binding, purified MHC/direct/fluorescence; filed as Kd, often an IC50 or EC50 that approximates it; ≥ and ≤ were set here for values at or beyond the usual limits of such assays
[9] = target: HLA-A*02:01; assay: as above
[10] = target: HLA-A*02:01; assay: IEDB peptide-MHC binding, purified MHC/competitive/fluorescence; filed as Kd, often an IC50 or EC50 that approximates it; ≥ and ≤ were set here for values at or beyond the usual limits of such assays
[11] = source organism: SARS coronavirus Tor2
[12] = source organism: Aromatoleum aromaticum
[13] = source organism: Dengue virus 3 Martinique/1243/1999
[14] = source organism: Zaire ebolavirus
[15] = source organism: Mammarenavirus lassaense
[16] = source organism: Mammarenavirus machupoense
[17] = source organism: Dengue virus 3 Sri Lanka/1266/2000
[18] = source organism: Dengue virus 2 Jamaica/1409/1983
[19] = source organism: Dengue virus 1 Brazil/97-11/1997
[20] = source organism: Salmonella enterica subsp. enterica serovar Typhimurium
[21] = source organism: Mycobacterium tuberculosis
[22] = source organism: Dengue virus 4 Philippines/H241/1956

Sequence: RILGPDCCI
IC50 ([1]; source organism: Sudan ebolavirus): 64000 nM

Sequence: CFANKHAGF
Kd [2, 11]: 11800 nM
Kd [3, 11]: ≥ 78100 nM
Kd [4, 11]: 6620 nM
Kd [5, 11]: 27.4 nM
Kd [6, 11]: 105 nM
Kd [7, 11]: 28.8 nM

Kd [8, 12]: ≥ 20000 nM
Kd [9, 12]: 17000 nM
Sequence: VLEGFEGDL

Sequence: YFTNDVSFL
Kd [2, 11]: 16100 nM
Kd [3, 11]: 12900 nM
Kd [4, 11]: ≥ 96800 nM
Kd [5, 11]: ≥ 78100 nM
Kd [6, 11]: 18300 nM
Kd [7, 11]: ≥ 75000 nM

Sequence: ENPYKTWAYH
Kd [2, 13]: ≥ 34100 nM

Sequence: ILDNQGRVV
Kd ([9]; source organism: Venezuelan equine encephalitis virus): 1210 nM

Sequence: SKIPGGAMY
Kd [4, 13]: 365 nM

Sequence: SWFITQRNFF
Kd [2, 11]: 12500 nM
Kd [3, 11]: 828 nM
Kd [4, 11]: 1030 nM
Kd [5, 11]: 0.035 nM
Kd [6, 11]: 0.0458 nM
Kd [7, 11]: 53.2 nM

Sequence: NNNTHHQDT
IC50 [1, 14]: ≥ 253000 nM

Sequence: CMLDGGNML
Kd [8, 15]: ≥ 20000 nM
Kd ([10]; source organism: Lassa virus Josiah): 2.97 nM

Sequence: GVIHNSTLQ
IC50 [1, 14]: ≥ 121000 nM

Sequence: EYFMCFKYLL
Kd [5, 16]: 192 nM
Kd [6, 16]: 9.3 nM
Kd [7, 16]: 49 nM

Sequence: AGPISQHNY
Kd [4, 17]: ≥ 76900 nM

Sequence: AGFAAGLTY
Kd [2, 15]: ≥ 61800 nM
Kd [3, 15]: ≥ 38500 nM
Kd [4, 15]: 178 nM
Kd [5, 15]: ≥ 77500 nM
Kd [6, 15]: ≥ 39200 nM
Kd [7, 15]: 6130 nM

Sequence: AWLVHRQWFL
Kd [6, 18]: 97.7 nM

Sequence: DNPYKTWAY
Kd [2, 19]: 6390 nM

Sequence: EFLTRNPAW
Kd [2, 11]: ≥ 69000 nM
Kd [3, 11]: ≥ 78100 nM
Kd [4, 11]: ≥ 100000 nM
Kd [5, 11]: ≥ 84500 nM
Kd [6, 11]: ≥ 84500 nM
Kd [7, 11]: ≥ 45200 nM

Sequence: FAHELEMLC
Kd [8, 20]: 720 nM
Kd [9, 20]: 1170 nM

Sequence: LEELLPAVS
IC50 [1, 14]: ≥ 141000 nM

Sequence: AVGIGLRLV
Kd [8, 21]: ≥ 20000 nM
Kd [9, 21]: 128 nM

Sequence: AILGDTAWDF
Kd [6, 18]: 3710 nM

Sequence: RTLLGLILFV
Kd ([10]; source organism: Variola virus): 1270 nM

Sequence: VSLTCSNTIF
Kd [3, 17]: 7760 nM

Sequence: LSSTRVPNY
Kd [3, 22]: 2040 nM
Kd [4, 22]: 194 nM

Sequence: WHLGKLELDF
Kd [6, 19]: 296 nM

IC50 ([1]; source organism: Homo sapiens): 52 nM
Sequence: ALAPAPAEV

Sequence: IGNENYLDY
Kd [4, 19]: 956 nM
